# According to patent US20250170316A1:
# Target: complement factor H present in serum (human) (UniProt P08603)
# Experiment: cell-based or functional assay
# UniProt P08603, sequence (P08603 19-1231 limits assumed): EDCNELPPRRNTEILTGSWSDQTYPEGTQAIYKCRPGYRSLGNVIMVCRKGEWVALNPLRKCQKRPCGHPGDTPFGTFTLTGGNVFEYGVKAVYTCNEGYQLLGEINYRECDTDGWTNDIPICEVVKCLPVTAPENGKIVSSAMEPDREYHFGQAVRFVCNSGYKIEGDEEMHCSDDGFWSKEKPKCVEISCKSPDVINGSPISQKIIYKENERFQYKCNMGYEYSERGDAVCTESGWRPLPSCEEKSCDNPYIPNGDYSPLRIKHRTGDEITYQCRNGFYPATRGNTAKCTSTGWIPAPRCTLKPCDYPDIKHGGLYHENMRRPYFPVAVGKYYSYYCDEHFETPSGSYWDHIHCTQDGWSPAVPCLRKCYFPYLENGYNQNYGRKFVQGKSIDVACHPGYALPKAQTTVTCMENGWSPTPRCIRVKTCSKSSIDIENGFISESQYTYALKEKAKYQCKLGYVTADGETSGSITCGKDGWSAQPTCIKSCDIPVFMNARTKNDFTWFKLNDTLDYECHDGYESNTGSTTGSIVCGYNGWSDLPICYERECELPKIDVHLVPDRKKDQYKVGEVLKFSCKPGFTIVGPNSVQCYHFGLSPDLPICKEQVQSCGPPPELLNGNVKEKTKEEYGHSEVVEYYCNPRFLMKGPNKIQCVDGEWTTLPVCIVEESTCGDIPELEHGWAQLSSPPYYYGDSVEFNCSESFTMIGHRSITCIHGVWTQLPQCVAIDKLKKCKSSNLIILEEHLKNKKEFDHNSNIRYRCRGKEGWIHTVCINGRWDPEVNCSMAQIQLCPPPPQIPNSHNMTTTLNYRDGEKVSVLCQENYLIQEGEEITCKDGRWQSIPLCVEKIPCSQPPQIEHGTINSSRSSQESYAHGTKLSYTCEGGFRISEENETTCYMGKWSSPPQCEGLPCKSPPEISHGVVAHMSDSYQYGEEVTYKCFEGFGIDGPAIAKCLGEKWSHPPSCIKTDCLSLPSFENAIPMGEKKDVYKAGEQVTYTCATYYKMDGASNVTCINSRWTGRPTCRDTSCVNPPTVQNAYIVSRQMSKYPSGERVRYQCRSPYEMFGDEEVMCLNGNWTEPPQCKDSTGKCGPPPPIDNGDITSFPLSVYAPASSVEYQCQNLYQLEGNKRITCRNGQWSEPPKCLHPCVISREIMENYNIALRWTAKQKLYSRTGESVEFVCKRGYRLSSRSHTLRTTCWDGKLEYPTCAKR
substance,measurement,value
"PspCN (residues 37-140 of pneumococcal surface protein C, PspC, of Streptococcus pneumoniae strain D39)","inhibition of acidified serum lysis of PNH-like (AET-treated) erythrocytes, IC50",27 nM
